Consider 1 protein from article PMC4333373, “Specific and non-specific interactions of ParB with DNA: implications for chromosome segregation” (Nucleic Acids Research, 2015).

The data set concerns the molecule itself. Nature of the data set: SEC-MALS; ParB alone, no DNA; 9 or 80 uM ParB2; Superdex 200 in 50 mM Hepes-KOH, 150 mM KCl, 2.5 mM MgCl2, 2 mM beta-mercaptoethanol; monomer and dimer. (Size exclusion chromatography separates by hydrodynamic size, large species first.)

B1: Bacillus subtilis ParB (natural protein, UniProt P26497 1-282, looked up)
chain: MAKGLGKGINALFNQVDLSEETVEEIKIADLRPNPYQPRKHFDDEALAELKESVLQHGILQPLIVRKSLKGYDIVAGERRFRAAKLAGLDTVPAIVRELSEALMREIALLENLQREDLSPLEEAQAYDSLLKHLDLTQEQLAKRLGKSRPHIANHLRLLTLPENIQQLIAEGTLSMGHGRTLLGLKNKNKLEPLVQKVIAEQLNVRQLEQLIQQLNQNVPRETKKKEPVKDAVLKERESYLQNYFGTTVNIKRQKKKGKIEIEFFSNEDLDRILELLSERES
notes: ParB (Spo0J) of Bacillus subtilis 168; the parB gene was amplified from genomic DNA and cloned into pET28a(+); native (untagged) protein; intact monomer has a theoretical weight of 32.2 kDa; Untagged; also called Spo0J; ParB2 (the dimer); source: E. coli BL21 (DE3), pET28a-ParB, purified (ammonium sulphate cuts, HiTrap Heparin, Mono S; some preparations also Superdex S75)
For B1, the “stoichiometry N” value is 2.

Broadly, the stoichiometry N is the number of molecules, sites or subunits per partner or assembly.
